Results taken from patent US20090233319.

Target: T1, recombinant ICAD protein, O00273
T1 chain: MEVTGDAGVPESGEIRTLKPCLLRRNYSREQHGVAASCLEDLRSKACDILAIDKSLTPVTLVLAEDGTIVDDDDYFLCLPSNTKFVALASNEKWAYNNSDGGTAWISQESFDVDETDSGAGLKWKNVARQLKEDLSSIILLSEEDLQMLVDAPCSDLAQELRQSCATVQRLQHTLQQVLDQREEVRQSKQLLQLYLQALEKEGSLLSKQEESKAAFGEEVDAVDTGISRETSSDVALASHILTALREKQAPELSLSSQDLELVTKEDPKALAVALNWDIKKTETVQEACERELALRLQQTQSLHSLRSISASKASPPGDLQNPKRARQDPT

B1: purified caspase-14 from human cornified cells (heterodimer of large subunit 17 KDa and small subunit 11 KDa) (protein)
chain 1: SLEEEKYDMSGARLALILCVTKAREGSEEDLDALEHMFRQLRFESTMKRDPTAEQFQEELEKFQQAIDSREDPVSCAFVVLMAHGREGFLKGEDGEMVKLENLFEALNNKNCQALRAKPKVYIIQACRGEQRDPGETVGGD
chain 2: KDSPQTIPTYTDALHVYSTVEGYIAYRHDQKGSCFIQTLVDVFTKRKGHILELLTEVTRRMAEAELVQEGKARKTNPEIQSTLRKRLYLQ
ICAD decomposition by caspase-14 in the presence of a kosmotropic salt (Western blot with anti-ICAD IgG): intact ICAD protein was reduced and the two major decomposition products were increased, thus indicating that purified caspase-14 has a limited decomposing effect on ICAD | ICAD hydrolysis by caspase-14 in ordinary caspase assay buffer (Western blot with anti-ICAD IgG): showed absolutely no hydrolytic activity of the purified caspase-14 for ICAD
